{"source": "the nanobody polyreactivity screen of Harvey et al. (2022)"}
{"experiment": "yeast display, Sf9 membrane polyspecificity reagent, FACS + sequencing; frameworks hold sequencing errors", "method_in_brief": "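Using colony PCR, genes from sorted yeast display clones were amplified, then sequenced on MiSeq at 2 × 250 and filtered by CDR length. The clones had been stained with 10% biotinylated, detergent-solubilized Sf9 membrane reagent for 1 hour at 4 °C and sorted by FACS into low and high (top ~1%) gates on anti-HA and streptavidin fluorescence. Polyreactivity labels come from the gate of origin.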"}
{"sequence": "QVQLEESGGGLVQAGGSLRLSCAASGRIFGAYAMGWYRQAPGKERELVAAITSRGGNTYYADSVKGRFTISRDNAKNTVYLQMNSLKPEDTAVYYCAARHDKRRQYYVGESAFDYWGQGTQVTVSS", "polyreactivity (PSR sort gate)": "low polyreactivity"}
{"sequence": "QVQLVESGGGLVQAGGSLRLSCAASGRTFCYYAMVWYRRAPGKERELVAAISWSGSRTYYADSVKGRFTISRDNANNSVYLQMTSLKPEDTAVYYCAAGARGLFWEYDYWGQGTQVTVSS", "polyreactivity (PSR sort gate)": "high polyreactivity"}
{"sequence": "QVQLVESGGGLVQAGGSLRLSCAASGRIFPWYAMGWYRQAPGKERELVAAISWSGGRTYYADSVKGRFTISRDNAKNTVYLQMNSLKPEDTAVYYCAAERVTYTISYSYSYDYWGQGTQVTVSS", "polyreactivity (PSR sort gate)": "high polyreactivity"}
{"sequence": "QVQLVESGGGLVQAGGSLRLSCAASGSTFIDYAMGWYRQAPGKERELVAAIDQGGGRTYYADSVKGRFTISRDNAKNTVYLQMNSLKPEDTAVYYCAATSRVVGEGGYEYWGQGTQVTVSS", "polyreactivity (PSR sort gate)": "low polyreactivity"}
{"sequence": "QVQLVESGGGLVQAGGSLRLSCAASGSIFRYYAMGWYRQAPGKERELVAAIRWSGGRTYYADSVKGRFTISRDNAKNTVYLQMNSLKPEDTAVYYCAADQPDYKTNVRYYYWGQGTQVTVSS", "polyreactivity (PSR sort gate)": "high polyreactivity"}
{"sequence": "QVQLVESGGGLVQAGGSLRLSCAASGFTFRRYAMGWYRQAPGKERELVAAISRSGGRTYYADSVKGRFTISRDNAKNTVYLQMNSLKPEDTAVYYCAARYFKPGGAYDSWGQGTQVTVSS", "polyreactivity (PSR sort gate)": "high polyreactivity"}
{"sequence": "QVQLVESGGGLVQAGGSLRLSCAASGLTLYYYAMGWYRQAPGKERELVAAMSYSGGSTYYADSVKGRFTISRDNAKNPVYLQMNSVKPEDTAVYYCAAVGDSDIRDEYWGQGTQVTVSS", "polyreactivity (PSR sort gate)": "low polyreactivity"}
{"sequence": "QVQLVESGGGLVQAGGSHRLSCAASGIIFYRNAMGWYRQAPGKERELVATITVSSGSTYYADSVKGRFTISRDNAKNTVYLLMYSLKPEDTAVYYCNARYYYFSVRYKYDFNYWGQGTQVTVSS", "polyreactivity (PSR sort gate)": "high polyreactivity"}
{"sequence": "QVQLVESGGGLVQAGGSLRLSCAASGRTFGKNAMGWYRQAPAKERELVAAISWGGGRTFYADSVKGRFTISRDNAKNTVYLQMNSLKPEDTAVYYCNAVQYPRRAKYDYWGQGTQVTVSS", "polyreactivity (PSR sort gate)": "low polyreactivity"}
{"sequence": "QVQLVESGGGLVQAGGSLRLSCAASGYIYNGYAMGWYRQAPGKERELVAAIDWSGGSTYYADSVKGRFTISRDNAKNTVYLQMNSLKPEDTAVYYCNASEWLSASYYWGQGTQVTVSS", "polyreactivity (PSR sort gate)": "high polyreactivity"}
{"sequence": "QVQLVESGGGLVQAGGSLRLSCAASGSILDHYAMGWYRQAPGKEREFVAAISIRGGSTYYADSVKGRFTISRDNAKNTVYLQMNSLKPEDTAVYYCNALSNYVYRRNDYWGQGTQVTVSS", "polyreactivity (PSR sort gate)": "low polyreactivity"}
{"sequence": "QVQLVESGGGLVQAGGSLRLSCAASGRIFGQNAMGWYRQAPGKERELVADITGSGGRTYYADSVKGRFTISRDNAKNTVYFQMNSLKPEDTAVYYCAVRVTSYYRTMVYWGQVTQVTVSS", "polyreactivity (PSR sort gate)": "low polyreactivity"}
{"sequence": "QVQLVESGGGLVQAGGSLRLSCAASGSTFYSNTMGWYRQAPGKERELVAAITRSGGSTYYADSVKGRFTISRDNAKNTVYLQMNSLKPEETAVYYCNTGYKTRALYWPYDYWGQGTLVTVSS", "polyreactivity (PSR sort gate)": "high polyreactivity"}
{"sequence": "QVQLVESGGGLFQAGGSLRLSCAASGRIFQYHAMGWYRQAPGKERELVAAIRRGRGSTYYADSVKGRFTISRDYAKNTVYLQMNSLKPVDTAVYYCAARRKRVSFYPEYDFWGQGTQVTVSS", "polyreactivity (PSR sort gate)": "low polyreactivity"}
{"sequence": "QVQLVESGGGLVQAGGSLRLSCAASGSIFSRYAMGWYRQAPGKERELVAAISGRGGGTYYADSVKGRFTISRDNAKNTVYLQKNSMKPEDTAVYYCAAQLGRPAYSRVSWRAYYYWGQGTQVTVSS", "polyreactivity (PSR sort gate)": "low polyreactivity"}
{"sequence": "QVQLVESGGGLVQAGGSLRLSSAASGRTFRRYAMGWYRQAPGKERELVATITNAGSTYYADSVKGRFTISRDNAKNTVYLPMNSLKPEDTAVYYCAARVPYKSDYWGQGTQVTVSS", "polyreactivity (PSR sort gate)": "low polyreactivity"}
{"sequence": "QVQLVESGGGLVQAGGSLRLSCAASGFIFYRYAMGWYRQAPGKESELVAAISWGGGSTTYYADSVKGRFTISRDNAKNTVYLQMNSLKPEDTAVYYCAAYIVKGYGSEYYYWGQGTQVTVSS", "polyreactivity (PSR sort gate)": "low polyreactivity"}
{"sequence": "QVQPVESGGGLVQAGGSLRLSCAASASTFYYYAMGWSRQAPGKERELVASITTGGGSTYYADSVKGRFTISRDNAKKTVYLQMNSLNPEDTAVYYCNAGRYGSNLEYWGQGTQVTVSS", "polyreactivity (PSR sort gate)": "low polyreactivity"}
{"sequence": "QVQLVESGGGLVQAGGSLRLSWAASGFIFPYNAMGWYRQAPGKERELVAVISSSGGDTYYADSVKGRFTISRDNAKNTVYLQMNSLIPVDTAVYYCAADSYYGYEYWGQGTQVTVSS", "polyreactivity (PSR sort gate)": "low polyreactivity"}
{"sequence": "QVQLVESGGGLVQAGGSLRLSCAASGNTFPTYAMGWYRQAPGKERELVAAISRRGGSTYYADSVKGRFTISRDNAKNTVYLQMNSLKPEDTAVYYCARPRRSVNVYKYIYNYWGQGTQVTVSS", "polyreactivity (PSR sort gate)": "high polyreactivity"}
{"sequence": "QVQLVESGGGLVQAGGSLRLSCAASRMGWYRQAPGKERELVARISGGVSTNYADSVRGRFTISRDNAKNTVYLQMNSVKPEDTAVYYCAADPLDTYDYWGQGTQATVSS", "polyreactivity (PSR sort gate)": "low polyreactivity"}
{"sequence": "QVQLVESGGGLVQAGGSLRLSCAASGITFWYYAMGWYRQAPGKERELVAVISRGGSTYYADSVKGRFTISRDNAKNTVYLQMNSLKPEDTAVYYCAADVSVSGYYYWGQGTQVTVSS", "polyreactivity (PSR sort gate)": "high polyreactivity"}
{"sequence": "QDQLVESCGGLVQARGSLRLSCAASGFTFRYNAMGWYRQAPGKERELVAAITGSTGTTYYADSVKGRFTISRDNAKNTVYLQMNSLKPEDTAVYYCAATFRDQHGSLYGYWGQGSQVTVSS", "polyreactivity (PSR sort gate)": "high polyreactivity"}
{"sequence": "PVQLQESGGGLVQAGGSLRLSCAASGNIFDADIMGWNRQAPGKESDLVACIADGGSTNYADSVKGRFTISRDNAKNTVYLQMNSLKPEDTAVHYCAAIAYPDIPTCFDYDSDYFFRGQGTQVTVSS", "polyreactivity (PSR sort gate)": "low polyreactivity"}
{"sequence": "QVQLVESGGGLVQAGGSLRLSCAASGSTFVGYARGWYRQEPGNETELVAAISGSGTSTYYADSVKGRFTISLDNAKNTVYLQMNSLKPEDTAVYYCKADPIFVYSSYNYWGQGTQVTVSS", "polyreactivity (PSR sort gate)": "low polyreactivity"}
{"sequence": "QVQLVESGGGLVQAGGSLRLSCAASGGIFGYYVMGWYRQAPGKERELVAAITSGGGTNYADSVKGRFTISRDNAKNTVYLQMNSLKPEDTAVYYCAAVYVRHRFGRFGYWGQGTQVTVSS", "polyreactivity (PSR sort gate)": "low polyreactivity"}
{"sequence": "QVQLVESGGGLVQAGGSLRLSCAASGGTLQGNAMGWYRPAPGKERELVAAISSRGGRTYYADSVKGRFTSSRDNAKNTVYLQMNSLKPEDTAVYYCNAEYPVYFEGYPYYWDYWGDSWGQGTQVTVSS", "polyreactivity (PSR sort gate)": "high polyreactivity"}
{"sequence": "QVQLVESGGGLVQAGGSLRLSCAASGITLGGNGMGWYRQAPGKERELVAAISQSGGTTYYADSVKGRFTISRDNAKNTVYLQMNSLKPEDTAVYYCNALWRGHGRYNYWGQGTQVTVSS", "polyreactivity (PSR sort gate)": "low polyreactivity"}
{"sequence": "QVQLVESGGGLVQSGGSLRLSCAASGSIFTPYSMGWYRQAPGKERELVAGISYRGGTTYYADSVKGRFTISRDNAKNTVYLQMNSLKPEDYAVYYCAAAASSPGGWFYYWGQGTQVTVSS", "polyreactivity (PSR sort gate)": "high polyreactivity"}
{"sequence": "QVQLVESGGGLVQAGGSLRLSCADSGFTFTLYAMGWYRQAPGKERELVAAISGIGGSTYYSDSVKGRFTISSDNAKNTVYLQMNSLKPEDTAVYYCNAVSGDSGDYWGQGTQVNVSS", "polyreactivity (PSR sort gate)": "low polyreactivity"}
{"sequence": "QVHHEESGGGLFQAGGRLRLSCAASGYIFYDYSMGWYRQAPGKERELVAAISSGGSTNYADSVKGRFTISRDNAKNTVYLQMNSLIPEDTAVYYCASDDRSYATWKRDYDYWGQGTHVTVSS", "polyreactivity (PSR sort gate)": "low polyreactivity"}
{"sequence": "QVQLVESGGGLDQAGGSLRLSCAASGSTYSYYAMGWYRQAPGKERELVAAISRSGGSTYYADSVKGRFTISRDNAKNTVYLQMNCMKPEDTAVYYCAARGQYRYSFGDYSWGQGTQVTVSS", "polyreactivity (PSR sort gate)": "high polyreactivity"}
{"sequence": "QDQLVESVGGLVQAGGSHRLSCAASGFTLKAYVMGWYRQAPGKERELVAAIRITGGRTYYADSVKGRFTISRDNAKNTVYLQMNSLKPQDTAVYYCNAVKGEPDDYVPFELDYWGQGTQVTVSS", "polyreactivity (PSR sort gate)": "high polyreactivity"}
{"sequence": "QVQLVESGGGLVQAGGSLRLSCDASGRIFYRYTMGWYRQAPGKERELVAAITDDSSTDYADSVKGRFTISRDNAKNTVYLQMNSLKPEDTAVYYCNADWYWKYDYWGQGTQVTVSS", "polyreactivity (PSR sort gate)": "low polyreactivity"}
{"sequence": "QVQLVESGGGLVQAGGSLRLSCAASGFIFRFYAMGWYRQAPGKERELVATISKRGGTTYYADSVKGRFTISRDNAKYTVYLQMNSLKPEDTAVYFCAVRLYLEMDYWGQGTQVTVSS", "polyreactivity (PSR sort gate)": "high polyreactivity"}
{"sequence": "QVQLVESGGGLVQAGGSLRLSCAASGSTFFNYAMGWYRQAPGKERELVAAISSSGGRTYYADSVKGRFTISRDNAKNTVYLQMNSLKPEDTAVYYCAASGRKNGMNYWGQGTQVTVSS", "polyreactivity (PSR sort gate)": "high polyreactivity"}
{"sequence": "QVQLEESGGGLVQAGGSLRLSCAASGFTISYYAMGWYRQAPGKERELVAAISSSGGSTYYADSVKGRFTISRDNAKNTVYLQMNSLKPDDTAVYYCAAGWPEYLRDGDYWGQGTQVTVSS", "polyreactivity (PSR sort gate)": "low polyreactivity"}
{"sequence": "QVQLVESGGRLLQEGGSLRLSCAASGLIVTYYTMGWYRPAPGKERELVASIDSGGSTNYADSVQGRFTISRDNAKNTVYLQLNCLKPEDTAVEFCAADYDGWFYEMGYWGQGTQVTVSS", "polyreactivity (PSR sort gate)": "low polyreactivity"}
{"sequence": "QFQLVESVGGLVQAGGSLRISCAASGIIFYSYALGWYREAPGKERELVATISFSGDNTYYADSVKGRFTISRDNAKNTVYLQMNSLKPEDTAVYYCAKDLGYRGRYNYWGQGTQVTVSS", "polyreactivity (PSR sort gate)": "low polyreactivity"}
{"sequence": "QVQLVESGGGLVQAGGSLRLSCAASGRILDFNAMGWYRQAPGKERELVAAINNSGGSTYYADSVKGRFTISRDNAKNTVYLQMNSLKPEDTAVYYCARYAIWKRGYWGQGTQVNVSS", "polyreactivity (PSR sort gate)": "low polyreactivity"}
{"sequence": "QVQLVESGGGLVQAGGRLRLSCAASGSTFHHNVMGWYRQAPGKEWELVAAITSSGGSTYYADSVKGRFTISRDNAKNTVYLQMNSLKPEDTAVYYCAKDKLIFYRVGSDYWGQGTQVNVSS", "polyreactivity (PSR sort gate)": "low polyreactivity"}
{"sequence": "QVQLVESVGGLVQAGGSLRLSCAASGSIFSAYAMGWYRQAPGKERELVASISWSGSSTYADSVKGRFTISRDNAKNTVYLQMNSLKPEDTAVYYCAAGYYSFRSAYDYWGQGTQVTVSS", "polyreactivity (PSR sort gate)": "high polyreactivity"}
{"sequence": "QVQLVESGGGLVQAGGSLRLSCAASGYILFAYAMGWYRQAPGKERELVATITTSGGITYYADSVKGRFTISRDNAKNTVYLQMNSLKPDDTAVYYCAAAEGCGLVTYDYWGQGTQVTVSS", "polyreactivity (PSR sort gate)": "low polyreactivity"}
